The target of one data set is T1, Ulp1 Hydrolase (Saccharomyces cerevisiae, UniProt Q02724).
T1 construct: C-terminal His-tagged SUMO hydrolase/protease Ulp (403–621)p (21) (27) was expressed from pET24d; His tag (C); made in house; host or cells: E. coli Rosetta (DE3) pLysS, vector pET24d
T1 sequence (Q02724 403-621): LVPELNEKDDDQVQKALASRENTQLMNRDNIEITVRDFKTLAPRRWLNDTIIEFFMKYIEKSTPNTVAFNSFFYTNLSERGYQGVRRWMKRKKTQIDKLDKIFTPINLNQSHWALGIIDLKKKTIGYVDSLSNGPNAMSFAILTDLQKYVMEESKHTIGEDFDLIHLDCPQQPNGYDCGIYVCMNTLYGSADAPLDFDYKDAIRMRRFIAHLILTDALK
Put plainly: In vitro Ulp1 cleavage of His6SUMO-GFP under various additives/conditions. To be noted: 4 to 37° C. Format: biochemical, yeast. The procedure:
Ni-NTA purified His6SUMO-GFP was incubated with Ulp1 under the indicated conditions for one hour at room temperature unless indicated otherwise. Low molecular weight markers (LMW) are also provided.
Ni-NTA purified His6SUMO-GFP was incubated with Ulp1 and 10 mM of various protease inhibitors for 1 hour at room temperature. Lane markers: Norm is addition of Ulp1 and N-ethymaleimide (NEM) to the substrate at the same time, Pre is the incubation of Ulp1 with NEM prior to the addition of substrate, +Ve is the absence of any inhibitor, −Ve is in the absence of Ulp1, lane 1 is with E-64, lane 2 is with EDTA, lane 3 is with leupeptin, lane 4 is with NEM, lane 5 is with pepstatin, lane 6 is with TLCK. Low molecular weight markers (LMW) are also provided.
The effects of various additives/conditions and temperature upon the in vitro cleavage reaction were determined as follows: His6smt3MeGFP was expressed from pET24d in Rosetta (DE3) pLysS (Novagen). The recombinant protein was purified as before using Ni-NTA agarose (Qiagen) and then buffer exchanged into 20 mM Tris-HCl pH 8.0, 150 mM NaCl and 5 mM β-mercaptoethanol using a PD-10 column (AP Biotech). […]

For the next data set, the target named is T2, SUMO hydrolase Ulp1 (Saccharomyces cerevisiae, UniProt Q02724).
T2 construct: C-terminal His-tagged SUMO hydrolase/protease Ulp (403–621)p (21) (27) was expressed from pET24d; His tag (C); made in house; host or cells: E. coli Rosetta (DE3) pLysS, vector pET24d
T2 sequence (Q02724 403-621): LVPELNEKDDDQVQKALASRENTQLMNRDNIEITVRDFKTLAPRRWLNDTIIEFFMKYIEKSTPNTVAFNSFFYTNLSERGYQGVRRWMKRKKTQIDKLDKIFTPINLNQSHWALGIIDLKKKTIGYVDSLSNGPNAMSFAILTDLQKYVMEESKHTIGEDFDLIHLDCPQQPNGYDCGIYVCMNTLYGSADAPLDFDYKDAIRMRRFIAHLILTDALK
The experiment in a line: In vitro cleavage of purified SUMO fusion proteins by SUMO hydrolase Ulp1. The class given is biochemical, yeast. To be noted: for In vitro cleavage by Ulp1 / SUMO hydrolase: purified fusion protein from E. coli.

Data set [1] relates to E. coli. The experiment in a line: Soluble versus insoluble fraction of fusion proteins expressed in E. coli. Format: cell-based. On the procedure:
E. coli were harvested by mild centrifugation and washed once with PBS buffer. Cells were resuspended in 4 ml of PBS and ruptured by several pulses of sonication. Unbroken cells were removed by mild centrifugation (5 min at 1500×g) and supernatants were sonicated again to ensure complete cell lysis. An aliquot (5 μl) was mixed with 2% SDS to ensure that no viscosity is detected owing to lysis of unbroken cells. After ensuring that no unbroken cells remained in the lysate, insoluble material consisting of cell walls, inclusion bodies and membrane fragments was sedimented by centrifugation (18,000×g for 10 min). The supernatant was considered “Soluble fraction”.
The pellets were washed from any remaining soluble proteins, lipids and peptidoglycan as follows. Pellets were resuspended in 600 μl of PBS and to the suspensions 600 μl of solution containing 3 M urea and 1% Tri ton X100 was added. The suspension was briefly vortexed and insoluble material was collected by centrifugation as above. The PBS/Urea/Triton wash was repeated two more times to ensure complete removal of soluble proteins. The washed pellets, designated as “insoluble fraction,” consisted primarily of inclusion bodies formed by over expressed proteins. Approximately 10 μg of protein from each fraction was resolved on 12% SDS-PAGE minigels and stained with Coomassie Brilliant Blue.
Human nuclear receptor proteins, such as steroid receptors, contain ligand-binding domains. These proteins have proven hard to express in soluble form in E. coli. […] The ligand-binding domain of LXR was expressed as SUMO fusion in Rosetta plysS cell at 20° C. or 37° C. and the pattern of soluble and insoluble protein was analyzed. […] Further proof that SUMO promotes solubility of previously insoluble proteins was gained by expressing MAPKAP2 kinase as a SUMO-fusion in E. coli. […] Numbers at the top of the gel, 0.1, 0.25 and 0.5 refer to the mM concentration of inducer IPTG, in the culture. The original induced culture (I), supernatant from lysed cells (S) and resuspended pellet (P) were analyzed on 12% SDS-PAGE. […] Although induction at 37° C. allows greater degree of expression, more than 50% of the kinase is still insoluble under these conditions. Cleavage of SUMO-MAPKKAP2 kinase by SUMO hydrolase is described in Example III. Also see FIG. 18.

The test system of data set [2] is E. coli. The experiment in a line: GFP fluorescence in soluble fractions of E. coli. Format: cell-based. To be noted: 37° C., approx. 0.1 mg soluble protein, Ex 485 nm/Em 510 nm. On the procedure:
GFP fluorescence was measured in soluble fractions (approx. 0.1 mg of soluble protein in a final volume of 40 μl) using Fluoroscan Accent FL fluorometer (LabSystems) with Excitation 485 nm/Emission 510 nm filter set with the exposure set to 40 sec. The data are presented in Arbitrary Units (AU).
The design and construction of all the UBL E. coli expression vectors has been described above. The DNA sequences, accession numbers of the UBL-GFP fusion proteins, and translation frames are shown FIGS. 25–32. […] Un-fused GFP is generally poorly expressed in E. coli. […] Induced cells were broken by sonication and soluble proteins were analyzed on SDS-polyacrylamide gels. […] To determine if the fusion proteins were folded correctly, we determined the fluorescence properties of proteins in the soluble fraction.

Entries after “also recorded” stand apart in the source; their conditions may differ.

B1: Ulp1: C-terminal His-tagged yeast SUMO hydrolase/protease Ulp (403–621) expressed in E. coli (protein, UniProt Q02724 403-621, looked up, fragment)
chain: LVPELNEKDDDQVQKALASRENTQLMNRDNIEITVRDFKTLAPRRWLNDTIIEFFMKYIEKSTPNTVAFNSFFYTNLSERGYQGVRRWMKRKKTQIDKLDKIFTPINLNQSHWALGIIDLKKKTIGYVDSLSNGPNAMSFAILTDLQKYVMEESKHTIGEDFDLIHLDCPQQPNGYDCGIYVCMNTLYGSADAPLDFDYKDAIRMRRFIAHLILTDALK
modifications: C-terminal His tag
notes: C-terminal His-tagged yeast SUMO hydrolase/protease Ulp (403–621) expressed in E. coli
Take B1: the “Effect of temperature on Ulp1 hydrolase activity” value with Ulp1 Hydrolase was “extremely active at 37 °C as well as at 4 °C; also recorded: Ulp1 is active over a broad range of temperatures,”.

B2: β-GUS: SUMO fusion of 65 KDa E. coli β-glucuronidase (SEQ ID NO: 23) (protein)
chain: MGHHHHHHGSDSEVNQEAKPEVKPEVKPETHINLKVSDGSSEIFFKIKKTTPLRRLMEAFAKRQGKEMDSLRFLYDGIRIQADQTPEDLDMEDNDIIEAHREQIGGMEFMLRPVETPTREIKKLDGLWAFSLDRENCGIDQRWWESALQESRAIAVPGSFNDQFADADIRNYAGNVWYQREVFIPKGWAGQRIVLRFDAVTHYGKVWVNNQEVMEHQGGYTPFEADVTPYVIAGKSVRITVCVNNELNWQTIPPGMVITDENGKKKQSYFHDFFNYAGIHRSVMLYTTPNTWVDDITVVTHVAQDCNHASVDWQVVANGDVSVELRDADQQVVATGQGTSGTLQVVNPHLWQPGEGYLYELCVTAKSQTECDIYPLRVGIRSVAVKGQQFLINHKPFYFTGFGRHEDADLRGKGFDNVLMVHDHALMDWIGANSYRTSHYPYAEEMLDWADEHGIVVIDETAAVGFNLSLGIGFEAGNKPKELYSEEAVNGETQQAHLQAIKELIARDKNHPSVVMWSIANEPDTRPQVHGNISPLAEATRKLDPTRPITCVNVMFCDAHTDTISDLFDVLCLNRYYGWYVQSGDLETAEKVLEKELLAWQEKLHQPIIITEYGVDTLAGLHSMYTDMWSEEYQCAWLDMYHRVFDRVSAVVGEQVWNFADFATSQGILRVGGNKKGIFTRDRKPKSAAFLLQKRWTGMNFGEKPQQGGKQ
B2: in the data set with SUMO hydrolase Ulp1 (2M urea, 20 min at room temperature), the “In vitro cleavage by SUMO hydrolase after addition of urea” value is “complete cleavage”. Besides, in the data set with SUMO hydrolase Ulp1, the “In vitro cleavage by Ulp1 / SUMO hydrolase” value is “partially resistant to cleavage”.

B3: SUMO kinase: MAPKAP2 kinase expressed as a SUMO-fusion in E. coli (SEQ ID NO: 29) (protein)
chain: MGHHHHHHGSDSEVNQEAKPEVKPEVKPETHINLKVSDGSSEIFFKIKKTTPLRRLMEAFAKRQGKEMDSLRFLYDGIRIQADQTPEDLDMEDNDIIEAHREQIGGMQFHVKSGLQIKKNAIIDDYKVTSQVLGLGINGKVLQIFNKRTQEKFALKMLQDCPKARREVELHWRASQCPHIVRIVDVYENLYAGRKCLLIVMECLDGGELFSRIQDRGDQAFTEREASEIMKSIGEAIQYLHSINIAHRDVKPENLLYTSKRPNAILKLTDFGFAKETTSHNSLTTPCYTPYYVAPEVLGPEKYDKSCDMWSLGVIMYILLCGYPPFYSNHGLAISPGMKTRIRMGQYEFPNPEWSEVSEEVKMLIRNLLKTEPTQRMTITEFMNHPWIMQSTKVPQTPLHTSRVLKEDKERWEDVKEEMTSALATMRVDYEQIK
Take B3: the “In vitro cleavage by Ulp1 / SUMO hydrolase” value with SUMO hydrolase Ulp1 is on record as “efficiently cleaved”. Moreover, the “Soluble form as fusion to SUMO” value in the data set with E. coli [1] (as summarised in Example III for FIG. 8) is 95%. In the data set on E. coli [1] (induced at 20° C. with 0.25 mM IPTG), the “Soluble fraction of fusion protein” value came to 90%. The “Insoluble fraction of fusion protein” value in the data set on E. coli [1] (induction at 37° C.) is recorded as “more than 50%”.

B4: Hub1-GFP (protein)
chain: MGHHHHHHGSDSEVNQEAKPEVKPEVKPETHINLKVSDGSSEIFFKIKKTTPLRRLMEAFAKRQGKEMDSLRFLYDGIRIQADQAPEDLDMEDNDIIEAHREQIGG
Turning to B4, the “GFP fluorescence of soluble fraction (correct folding)” value with E. coli [2] is recorded as “able to fluoresce”. The “Solubility of UBL-GFP fusion (soluble panel of stained gel)” value in the data set on E. coli [1] (37° C., FIG. 4A) is “able to solublize the GFP”.

B5: SUMO-LXR: human liver X receptor ligand binding domain as SUMO fusion (SEQ ID NO: 25) (protein)
chain: MGHHHHHHGSDSEVNQEAKPEVKPEVKPETHINLKVSDGSSEIFFKIKKTTPLRRLMEAFAKRQGKEMDSLRFLYDGIRIQADQTPEDLDMEDNDIIEAHREQIGGMSLWLGAPVPDIPPDSAVELWKPGAQDASSQAQGGSSCILREEARMPHSAGGTAGVGLEAAEPTALLTRAEPPSEPTEIRPQKRKKGPAPKMLGNELCSVCGDKASGFHYNVLSCEGCKGFFRRSVIKGAHYICHSGGHCPMDTYMRRKCQECRLRKCRQAGMREECVLSEEQIRLKKLKRQEEEQAHATSLPPRRSSPPQILPQLSPEQLGMIEKLVAAQQQCNRRSFSDRLRVTPWPMAPDPHSREARQQRFAHFTELAIVSVQEIVDFAKQLPGFLQLSREDQIALLKTSAIEVMLLETSRRYNPGSESITFLKDFSYNREDFAKAGLQVEFINPIFEFSRAMNELQLNDAEFALLIAISIFSADRPNVQDQLQVERLQHTYVEALHAYVSIHHPHDRLMFPRMLMKLVSLRTLSSVHSEQVFALRLQDKKLPPLLSEIWDVHE
Turning to B5, the “Fraction of protein solublized by SUMO fusion” value in the data set with E. coli [1] (induced at 20° C.) is “about 40%”. Also, the “Solubility of fusion protein” value in the data set with E. coli [1] (induced at 37° C.) is reported as “hardly any SUMO-LXR was soluble”.
